# Reference: IntAct's records for PubMed 7538908
# B1: Tumor necrosis factor receptor superfamily member 6 (Homo sapiens), P25445 (parent)
# chain: MLGIWTLLPLVLTSVARLSSKSVNAQVTDINSKGLELRKTVTTVETQNLEGLHHDGQFCHKPCPPGERKARDCTVNGDEPDCVPCQEGKEYTDKAHFSSKCRRCRLCDEGHGLEVEINCTRTQNTKCRCKPNFFCNSTVCEHCDPCTKCEHGIIKECTLTSNTKCKEEGSRSNLGWLCLLLLPIPLIVWVKRKEVQKTCRKHRKENQGSHESPTLNPETVAINLSDVDLSKYITTIAGVMTLSQVKGFVRKNGVNEAKIDEIKNDNVQDTAEQKVQLLRNWHQLHGKKEAYDTLIKDLKKANLCTLAEKIQTIILKDITSDSENSNFRNEIQSLV
# Variants of: B1
# Details: with ripk1_human RIPK1, Q13546
# Chain of ripk1_human RIPK1, Q13546 (Q13546 whole entry): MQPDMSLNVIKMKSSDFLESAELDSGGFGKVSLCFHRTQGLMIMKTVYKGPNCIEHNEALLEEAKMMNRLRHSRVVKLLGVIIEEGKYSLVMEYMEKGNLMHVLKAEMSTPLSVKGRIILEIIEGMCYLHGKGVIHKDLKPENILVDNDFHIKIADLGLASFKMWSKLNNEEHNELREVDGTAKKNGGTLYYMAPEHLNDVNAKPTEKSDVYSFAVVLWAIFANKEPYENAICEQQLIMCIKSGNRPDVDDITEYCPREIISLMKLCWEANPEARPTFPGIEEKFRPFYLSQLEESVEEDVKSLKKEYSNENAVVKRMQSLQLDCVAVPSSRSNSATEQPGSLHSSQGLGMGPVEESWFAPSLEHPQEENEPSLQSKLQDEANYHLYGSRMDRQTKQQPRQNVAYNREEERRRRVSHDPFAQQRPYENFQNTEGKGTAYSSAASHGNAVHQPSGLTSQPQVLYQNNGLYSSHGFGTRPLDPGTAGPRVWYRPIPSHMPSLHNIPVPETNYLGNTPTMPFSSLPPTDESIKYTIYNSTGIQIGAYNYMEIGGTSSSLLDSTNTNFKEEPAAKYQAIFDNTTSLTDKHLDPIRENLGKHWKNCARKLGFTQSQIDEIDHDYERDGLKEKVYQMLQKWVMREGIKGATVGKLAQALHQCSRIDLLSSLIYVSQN
row,Variant,effect of a mutation on the interaction
1,MLGIWTLLPLVLTSVARLSSKSVNAQVTDINSKGLELRKTVTTVETQNLEGLHHDGQFCHKPCPPGERKARDCTVNGDEPDCVPCQEGKEYTDKAHFSSKCRRCRLCDEGHGLEVEINCTRTQNTKCRCKPNFFCNSTVCEHCDPCTKCEHGIIKECTLTSNTKCKEEGSRSNLGWLCLLLLPIPLIVWVKRKEVQKTCRKHRKENQGSHESPTLNPETVAINLSDVDLSKYITTIAGVMTLSQVKGFVRKNGNNEAKIDEIKNDNVQDTAEQKVQLLRNWHQLHGKKEAYDTLIKDLKKANLCTLAEKIQTIILKDITSDSENSNFRNEIQSLV [V254N],decreasing interaction
